From patent publication US20150197796, “SSB METHOD” (OXFORD NANOPORE TECHNOLOGIES LIMITED, published 2015)

Target: EcoSSB-Q152del (C-terminal truncated SSB) (Escherichia coli, UniProt P0AGE0 SEQ:1-152)
Assay: EMSA; complex formation not impaired vs WT; 5% TBE gel
Settings: tags: N-terminal His6-TEV site removed; chain copies: 4 inferred

B1: 70mer polyT (ssDNA)
DNA: TTTTTTTTTTTTTTTTTTTTTTTTTTTTTTTTTTTTTTTTTTTTTTTTTTTTTTTTTTTTTTTTTTTTTT
B1: binds.
